Assay results: the DeepSol protein solubility set

Assay: soluble on expression in E. coli; label from the status in PepcDB or PDB records

| Sequence | soluble on expression in E. coli |
| --- | --- |
| PQEKVSRIHASSGTTGRPTVVGYTTGDLNNWADLVARSLRAGGVKPTDKVHVAYGYGLFTGGLGAHYGAERLGCTVIPMSGGMTDRQIQLIEDFEPDAIMVTPSYMLTIVDAMIKKGIDPSKTSLRTGVFGAEPWTEEMRTELEKQLNMDAVDIYGLSEVMGPGVAMECVDTKDGLHI | not soluble |
| PQQRRDIRFVWSGDTVGQGFGINPDIGGMRIYEAMRLRLPDFFIHSGDTIYADGPVPAQITAEGGRIWRNITTEAKSKVAETLDEYRGNYRYNLMDENLRRFNAEVPQIWQWDDHEVTNNWSPSKQLDDRYKVKDIQLLSSRARQAYLEYAPLRLQEADKGGRIYRKIPYGPMLDVFVLDMRSYRDGNDANLADKPGPTTAFMGCEQLDWLKRELDASTAQWKVIAADMPIGLGVPDGEVSPGVPRWEAIANGNDGPALGRELEIAELLAYLRAQKVRDCVWLTADVHYCAAHHYQPDLAVFQDFDPFWEFVAGPLNASSFGPNVLDKTFGPELVFQKAPPAQNTSPFAGYQFFGEVNIDGQTGEMSVALRDLDGVSVFERKLQP | not soluble |
| PSQVFKPLVSLFSPIEPSVYEARGRLPREQLGETRLDYDRTFQLASVEAARLGIAEPIGELYYSFEYNFFGAGFGDHDDPMGKSWLFFHGSDGRLLGQEVAGQGSWGERFYRLQYPIHGGRIAGLPGR | not soluble |
| PTSAPQHLTVEDVTDTTTTLKWRPPDRIGAGGIDGYLVEYCLEGSEEWVPANKEPVERCGFTVKDLPTGARILFRVVGVNIAGRSEPATLLQPVTIRE | soluble |
| PVLIVTPLEDQQVFVGDRVEMAVEVSEEGAQVMWMKNGVELTREDSFKARYRFKKDGKRHILIFSDVVQEDRGRYQVITNGGQCEAELIVEEKQ | soluble |
| PYAKGNFKAYEQELIGRFKHGESIHSDSIRFPDSLRYKTLVTGRTVYGGGGIMPDLFIPTDTALFNKLHRELLNKGIFNRAVLKYVDAHRQKLRQRFPDRQSYATFSIPEELTESLKAFAEAEKITWSTELFAQAEELIKCQLHAYIARDILGENDFFYFFNRMDKEYIKALDLLNDPDEYKRLLGK | not soluble |
| PYNKNGFKVGMKLEGVDPEHQSVYCVLTVAEVCGYRIKLHFDGYSDCYDFWVNADALDIHPVGWCEKTGHKLHPPKGYKEEEFNWQTYLKTCKAQAAPKSLFENQNITVIPSGF | soluble |
| QADMPLERIIEAEKRVECNDPLVALVVNENNTTVNNICQATHKQLFQLVQWAKLVPHFTSLPLTDQVQLLRAGWNELLIAAFSHRSMQAQDAIVLATGLTVNKSTAHAVGVGNIYDRVPSELVNKMKEMKMDKTELGCLRAIILYNPDVRGIKSVQEVEMLREKIYGVLEEYTRTTHPNEPGRFAKLLLRLPALRSIGLKCLEHLFFFKLIGDVPIDTFLMEMLEGTTDS | soluble |
| QALEYSGTKRFVYVIDENNKATRQEVLLGARVDNEVVIESGVEIGDKIVVQGIVNMRDGVEVKEIVAPLKANTTDVTRNDSESVEEEN | not soluble |
| QAMKELSKSDRTRQFIIESTAPVFNVKGLAGTSLTDLTEATNLTKGSIYGNFENKEAVAIAAFDYNWGHVKSVLTAKVQACNTYKEMLLVYSSMYNDADGSLFPVGGCPLLNTTIEADDTHDALRKKAGEAILSWKKNLVTIIKKGIQAKEFRPDTDVTKIAFSMIALVEGAILIHRATKNRAYSDYVFESLEDLIAGIEVKKK | soluble |
| QDNALKQVAAMAKIADRYVSAWGSEAQVEDDTIRRLLASLGYDTSSDDALLQSAEKKHKKDVVDPVLVVHQGSAIEVPLYLGVSARESEFDWRLQTEQGEVLEGYLQSQIVRDERAEGGPLVFALPNDLPLGYHTLLIARKRRKAPYEMTLIVTPQACYKQPALAQ | not soluble |
| QGALYLVPTPIGNLEDMTFRAIRMLKEADIIAAEDTRNTVKLLNHFEITTRMTSYHQFTKENKEDNIIQRMLDGEVVALVSDAGMPSISDPGYELVQNALNANIPVIPLPGA | not soluble |
| QGIETVTKANGYETLLAHFSYDELEEERKIASLLSYQVDGLILTESHHTPRTLQMIKNAGVPVVETMELPPQPIDMAVGLDHEDASYNAVKRMLDAGKRTIVYFGARLDTRTKLRMQGYDRAMNEAGLEPKHVLTGVHSSFSLAHDLLERALKTYPTLDGVFCTNDDIAIGTMLSAQQRGIQVPQQLAVVGYNALDIGQTISPKLTSVDTPRFQIGVKSAELLIARLKGEAQEEKVFDMGYQITSGESV | not soluble |
| QLTRERLTATSRYKLSSSDTFRVIGNPEPREGKLRMQVQLTGGSSPSYILYIRHEGEYEPVARGDMLKLRKFYARSVEEWEQKAPAMGRYMAGKGLSGSLHAKTGDVEILSTAKGPFSLRQKALDLSDRLAATLYELSPSLLSDSRRAMLEAMCLGREGEAPDVRRKFVAAGVAH | not soluble |
| QNTLAENQFNQRRTIETTLMGSIISAFRARGDAGAREILTEWKDSPVSSGVYVIQGDEKKDILNRYIDSYTIERARLFAAGHPHSNLVHIEYDRFGEEYLFFTKDWDKLQARRLPSPLLIPGLPLAPIWHE | not soluble |
| QPKTFTVRIVTMDAEMEFNCEMKWKGKDLFDLVCRTLGLRETWFFGLQYTIKDTVAWLKMDKKVLDHDVSKEEPVTFHFLAKFYPENAEEELVQEITQHLFFLQVKKQILDEKVYCPPEASVLLASYAVQAKYGDYDPSVHKRGFLAQEELLPKRVINLYQMTPEMWEERITAWYAEHRGRARDEAEMEYLKIAQDLEMYGVNYFTIRNKKGTELLLGVDALGLHIYDPENRLTPKISFPWNEIRNISYSDKEFTIKPLDKKIDVFKFNSSKLRVNKLILQLCIGNHDLFMRRRKADSLEVQQMKAQAREEKARKQMERQRLA | soluble |
| QQIGLKTNLLYWGTTTPNAGLEFRMGKKWTLDVSGGYNPFTFSHHRKLKHWLVAPELRYWTCEAFSGHFFGLHGIGGEYNVNDIDIPIGRLKKLNNYRYE | not soluble |
| QRWSLPSLDPFGDRETAIETVGETVETSIDAVDTDSLAIAFSGGVDSALLAARLDAPLYVAGFPDSHDIEAARSAAELLGTEVRVVELTHDAIERAVPEIARATARTNAMDVQIALPLYLVAERVAGDGFDRLALGQGADELFGGYAKVAKAPEDPRVEADTVRGAQREVIASLPDQLERDVLALRAAGVEPVTPLLHDRVIGAALRLDGDLLVDGETRKVALRAAARESLPDEIADRDKKAAQYGSLAARELDRLARQAGYKRRMDDHVTQYVESLVE | not soluble |
| QSQGVLSSFPAPQAVQDNPAMPTSSGSEGNVKLCSLEEAQRIWKQKSAEIYPIMDKSSRTRLALIICNEEFDSIPRRTGAEVDITGMTMLLQNLGYSVDVKKNLTASDMTTELEAFAHRPEHKTSDSTFLVFMSHGIREGICGKKHSEQVPDILQLNAIFNMLNTKNCPSLKDKPKVIIIQAARGDSPGVVWFKDSVGVSGNLSLPTTEEFEDDAIKKAHIEKDFIAFCSSTPDNVSWRHPTMGSVFIGRLIEHMQEYACSCDVEEIFRKVRFSFEQPDGRAQMPTTERVTLTRCFYLFPGH | soluble |
| QSSKSPLTAALGLDISGTPIITDLQKMPHGLIAGATGSGKSVCINSLLVSLLYKATPDQLKLLLIDPKMVELAPYNRIPHLVSPVITDAKAATVALKWAVEEMERRYQLFSHTGVRNMEKYNEYASHPDHTGEKLPYILIVIDELADLMMVAPNDVEESISRIAQKARACGIHMIVATQRPSV | not soluble |
| QSSSSAIEATIEGNSQTTISQTSHFIQSYIKKLETTSTGLTQQTDVLAYAENPSQDKVEGIRDLFLTILKSDKDLKTVVLVTKSGQVISTDDSVQMKTSSDMMAEDWYQKAIHQGAMPVLTPARKSDSQWVISVTQELVDAKGANLGVLRLDISYETLEAYLNQLQLGQQGFAFIINENHEFVYHPQHTVYSSSSKMEAMKPYIDTGQGYTPGHKSYVSQEKIAGTDWTVLGVSSLEKLDQVRSQL | not soluble |
| QTIRSASDIRDVFINAGIKGEEYDAAWNSFVVKSLVAQQEKAAADVQLRGVPAMFVNGKYQLNPQGMDTSNMDVFVQQYADTVKYLSEKKGGGTGAQYEDGKQYTTLEKPVAGAPQVLEFFSFFCPHCYQFEEVLHISDNVKKKLPEGVKMTKYHVNFMGGDLGKDLTQAWAVAMALGVEDKVTVPLFEGVQKTLIK | soluble |
| QVIEVLNKQVADWSVLFTKLHNFHWYVKGPQFFTLHEKFEELYTESATHIDEIAERILAIGGKPVATMKEYLEISSIQEAAYGETAEGMVEAIMKDYEMMLVELKKGMEIAQNSDDEMTSDLLLGIYTELEKHAWMLRAFLN | soluble |
| QVPILHRDADFLLRALQPDDFVRTSRYENANREHLAPWEPLRDPGYFSVDNARARTLLQVASMDEGEALLLLLLDPDDGEVLGRCSYTNIVRGVFQACHLGFSLAAAAQGRGLMARALRVANRYCFEQLGLHRIMASHLPRNARSERLLESLGFEKEGYARAYLKIAGVWEDHVLRALVDAPR | not soluble |
| QVQLVESGGGLVQPGGSLRLSCAASGFTFNSYWINWVRQAPGKGLEWVSGIAYDSSNTLYADSVKGRFTISRDNSKNTLYLQMNSLRAEDTAVYYCARGLGAFHWDMQPDYWGQGTLVTVSSASTKGPSVFPLAPSSKSTSGGTAALGCLVKDYFPEPVTVSWNSGALTSGVHTFPAVLQSSGLYSLSSVVTVPSSSLGTQTYICNVNHKPSNTKVDKKVEPKSCDKTH | soluble |
| QVQLVQSGPELKKPGETVKISCKASGYMFTNYGMNWVKQAPGKALKWMGWINPYTGESTFADDFKGRFAFFLETSATTAYLQINNLKNEDTATYFCARGTTIVWAMDYWGQGTSVTVSSASTKGPSVFPLAPSSKSTSGGTAALGCLVKDYFPEPVTVSWNSGALTSGVHTFPAVLQSSGLYSLSSVVTVPSSSLGTQTYICNVNHKPSNTKVDKKVEPLSCDKTHT | soluble |
| QYQDYASFFRNNKSVTHLIVPSNFIGAGVSKYKDWKRSNIPYTQLDMAVVQNRPAGSLRRFVVLVVGETTRAANWGLNGYSRQTTPLLAARGDEIVNFPQVRSCGTSTAHSLPCMFSTFDRTDYDEIKAEHQDNLLDIVQRAGVEVTWLENDSGCKGVCGKVPNTDVTSLNLPEYCRNGECLDNILLTKFDEVLNKNDKDAVLILHTIGSHGPTYYERYTEAERKFTPTCDTNEINKCTRATLVNTYDNTVLYVDQFIDKVIRKLENRDDLESVVHYVSDHGESLGENG | not soluble |
